Data as given in CN111748039A.

Molecular target: 重组CEA蛋白 (UniProt P06731)
UniProt P06731, sequence (P06731 35-685 limits assumed): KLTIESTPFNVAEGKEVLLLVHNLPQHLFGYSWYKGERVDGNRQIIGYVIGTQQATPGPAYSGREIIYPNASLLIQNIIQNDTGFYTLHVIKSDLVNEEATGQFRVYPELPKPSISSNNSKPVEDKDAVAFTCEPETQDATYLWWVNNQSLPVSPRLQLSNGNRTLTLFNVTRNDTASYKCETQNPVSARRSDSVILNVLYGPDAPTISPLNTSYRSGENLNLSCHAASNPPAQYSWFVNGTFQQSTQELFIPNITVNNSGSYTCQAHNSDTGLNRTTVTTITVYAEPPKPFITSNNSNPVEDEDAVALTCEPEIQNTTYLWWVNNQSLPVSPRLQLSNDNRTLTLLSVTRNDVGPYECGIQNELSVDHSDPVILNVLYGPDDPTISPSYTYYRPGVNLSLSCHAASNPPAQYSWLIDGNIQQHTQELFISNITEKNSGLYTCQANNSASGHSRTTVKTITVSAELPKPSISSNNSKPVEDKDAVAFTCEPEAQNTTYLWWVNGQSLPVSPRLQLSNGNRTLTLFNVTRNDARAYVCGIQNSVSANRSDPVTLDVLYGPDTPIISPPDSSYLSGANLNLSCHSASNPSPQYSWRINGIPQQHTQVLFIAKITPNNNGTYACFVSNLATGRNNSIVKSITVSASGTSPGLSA

效价 (titer): 100000
B1: 1#单抗 (antibody, mouse IgG1, kappa, V domains shown)
VH: QIQLVQSGPELKKPGETVKISCKTSGYTFTNYAMNWVKQAPGKGLKWMGWINTNTGEPTYAEEFKGRFAFSLETSATAAYLQINNLKNDDTASYFCARGWVLYAMDYWGQGTSVTVSS
VL: DIQMTQTTSSLSASLGDRVTISCRASQDISNYLNWYQQKSDGTVKLLIYYTSRLHSGVPSRFSGSGSGTDYSLTISNLDPEDVATYFCQQGDMFMFGGGTKLEIRT
